# Measured values as given in article PMC3019082.
# T1: I-SceI G100V (Saccharomyces cerevisiae, UniProt P03882 1-235, G100V)
# T1 sequence: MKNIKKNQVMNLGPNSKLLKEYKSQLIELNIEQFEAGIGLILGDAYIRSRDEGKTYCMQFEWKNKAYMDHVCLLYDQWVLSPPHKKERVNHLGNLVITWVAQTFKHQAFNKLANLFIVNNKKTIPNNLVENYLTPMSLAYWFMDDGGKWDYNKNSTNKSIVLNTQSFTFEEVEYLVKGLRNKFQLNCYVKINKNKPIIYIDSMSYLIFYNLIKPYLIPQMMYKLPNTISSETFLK
# T2: I-SceI K86R/G100C (Saccharomyces cerevisiae, UniProt P03882 1-235, K86R;G100C)
# T2 sequence: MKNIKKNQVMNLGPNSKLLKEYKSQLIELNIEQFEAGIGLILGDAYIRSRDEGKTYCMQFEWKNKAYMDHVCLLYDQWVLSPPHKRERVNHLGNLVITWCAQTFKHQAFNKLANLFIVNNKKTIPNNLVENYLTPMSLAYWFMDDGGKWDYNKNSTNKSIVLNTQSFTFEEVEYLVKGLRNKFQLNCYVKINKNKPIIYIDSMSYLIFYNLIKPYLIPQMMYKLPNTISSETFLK
# T3: I-SceI K86R/G100T (Saccharomyces cerevisiae, UniProt P03882 1-235, K86R;G100T)
# T3 sequence: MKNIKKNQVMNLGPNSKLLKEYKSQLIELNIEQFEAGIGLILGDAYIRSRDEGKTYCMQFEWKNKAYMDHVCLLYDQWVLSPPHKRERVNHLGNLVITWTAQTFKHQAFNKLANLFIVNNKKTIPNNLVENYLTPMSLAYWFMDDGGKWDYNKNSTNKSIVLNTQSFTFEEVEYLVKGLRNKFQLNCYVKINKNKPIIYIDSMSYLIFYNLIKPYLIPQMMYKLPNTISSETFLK
# T4: I-SceI K86R (Saccharomyces cerevisiae, UniProt P03882 1-235, K86R)
# T4 sequence: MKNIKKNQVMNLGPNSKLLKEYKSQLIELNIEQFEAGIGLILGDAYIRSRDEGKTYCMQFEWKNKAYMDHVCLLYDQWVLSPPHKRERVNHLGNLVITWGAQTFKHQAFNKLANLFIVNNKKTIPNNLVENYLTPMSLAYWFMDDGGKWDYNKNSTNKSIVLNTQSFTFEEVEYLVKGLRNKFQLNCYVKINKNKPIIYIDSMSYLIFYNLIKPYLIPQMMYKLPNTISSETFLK
# T5: I-SceI K86R/G100S (Saccharomyces cerevisiae, UniProt P03882 1-235, K86R;G100S)
# T5 sequence: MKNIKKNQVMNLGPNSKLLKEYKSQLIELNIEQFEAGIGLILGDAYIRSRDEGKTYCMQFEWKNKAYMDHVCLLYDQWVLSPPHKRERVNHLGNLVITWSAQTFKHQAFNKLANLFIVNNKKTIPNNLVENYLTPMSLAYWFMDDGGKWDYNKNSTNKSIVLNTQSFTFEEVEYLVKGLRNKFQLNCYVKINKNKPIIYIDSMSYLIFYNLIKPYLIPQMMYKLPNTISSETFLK
# T6: I-SceI wild type (K86/G100) (Saccharomyces cerevisiae, UniProt P03882 1-235)
# T6 sequence: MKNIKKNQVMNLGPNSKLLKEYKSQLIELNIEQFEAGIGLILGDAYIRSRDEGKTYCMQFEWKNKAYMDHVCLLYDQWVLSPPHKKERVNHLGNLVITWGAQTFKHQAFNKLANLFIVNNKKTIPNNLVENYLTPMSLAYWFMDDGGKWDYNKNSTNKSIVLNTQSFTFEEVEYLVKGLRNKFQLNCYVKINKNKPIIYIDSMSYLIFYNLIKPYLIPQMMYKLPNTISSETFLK
# T7: I-SceI G100S (Saccharomyces cerevisiae, UniProt P03882 1-235, G100S)
# T7 sequence: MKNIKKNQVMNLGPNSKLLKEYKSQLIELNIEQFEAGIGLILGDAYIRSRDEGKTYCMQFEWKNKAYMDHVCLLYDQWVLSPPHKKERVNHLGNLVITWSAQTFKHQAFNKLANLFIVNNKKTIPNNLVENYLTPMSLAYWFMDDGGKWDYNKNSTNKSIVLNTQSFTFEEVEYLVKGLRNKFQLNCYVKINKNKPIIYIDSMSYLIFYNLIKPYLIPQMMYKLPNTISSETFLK
# T8: I-SceI G100T (Saccharomyces cerevisiae, UniProt P03882 1-235, G100T)
# T8 sequence: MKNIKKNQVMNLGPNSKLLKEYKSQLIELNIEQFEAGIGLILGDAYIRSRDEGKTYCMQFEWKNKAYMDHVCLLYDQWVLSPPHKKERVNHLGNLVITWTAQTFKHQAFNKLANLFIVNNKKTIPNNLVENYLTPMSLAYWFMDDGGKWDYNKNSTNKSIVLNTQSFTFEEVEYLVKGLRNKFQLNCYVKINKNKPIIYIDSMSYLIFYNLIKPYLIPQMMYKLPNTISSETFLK
# T9: I-SceI G100C (Saccharomyces cerevisiae, UniProt P03882 1-235, G100C)
# T9 sequence: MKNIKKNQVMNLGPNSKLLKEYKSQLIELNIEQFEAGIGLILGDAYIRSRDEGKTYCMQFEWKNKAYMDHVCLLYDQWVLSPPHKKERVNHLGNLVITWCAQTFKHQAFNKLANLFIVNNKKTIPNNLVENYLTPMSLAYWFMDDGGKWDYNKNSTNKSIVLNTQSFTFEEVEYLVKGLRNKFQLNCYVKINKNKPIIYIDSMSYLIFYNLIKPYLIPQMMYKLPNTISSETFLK
# Tests used:
# Assay in all cases: filter binding
# I-SceI G100V = target: T1, I-SceI G100V
# I-SceI K86R/G100C = target: T2, I-SceI K86R/G100C
# I-SceI K86R/G100T = target: T3, I-SceI K86R/G100T
# I-SceI K86R = target: T4, I-SceI K86R
# I-SceI K86R/G100S = target: T5, I-SceI K86R/G100S
# [1] = target: T6, I-SceI wild type (K86/G100)
# I-SceI G100S = target: T7, I-SceI G100S
# I-SceI G100T = target: T8, I-SceI G100T
# I-SceI G100C = target: T9, I-SceI G100C
Binder,Kd (I-SceI G100V) [nM],Kd (I-SceI K86R/G100C) [nM],Kd (I-SceI K86R/G100T) [nM],Kd (I-SceI K86R) [nM],Kd (I-SceI K86R/G100S) [nM],Kd [1] [nM],Kd (I-SceI G100S) [nM],Kd (I-SceI G100T) [nM],Kd (I-SceI G100C) [nM]
"A/T+4 (WT) I-SceI target, filter binding duplex (dsDNA) DNA 1: AACGAATAAAAGTTACGCTAGGGATAACAGGGTAATATAGCGAAAGAGTAGATATT DNA 2: CAATATCTACTCTTTCGCTATATTACCCTGTTATCCCTAGCGTAACTTT",240 ± 51,74 ± 12,96 ± 16,35 ± 5,83 ± 27,9 ± 3,150 ± 26,39 ± 13,110 ± 30
"C/G+4 I-SceI target, filter binding duplex (dsDNA) DNA 1: AACGAATAAAAGTTACGCTAGGGATAACCGGGTAATATAGCGAAAGAGTAGATATT DNA 2: CAATATCTACTCTTTCGCTATATTACCCGGTTATCCCTAGCGTAACTTT",230 ± 27,7.5 ± 2.3,8.2 ± 0.86,39 ± 10,23 ± 4.3,20 ± 4.6,32 ± 10,10 ± 1.5,34 ± 8.8
